These results are taken from patent US20120114682A1 (GEORGIA TECH RESEARCH, published 2012).

Test [1] addresses T1, Fibrinogen fragment D (human, UniProt P02671 130-216; P02675 164-491; P02679 114-432, limits assumed).
T1 construct: domain: Fragment D (or D-domain); Made by plasmin digestion of human fibrinogen and purified on GPRPAA beads; holds the C-terminal polymerization pockets without the N-terminal knobs; immobilised by amine coupling on the SPR chip; also called D-domain
T1 sequence (looked up) 1: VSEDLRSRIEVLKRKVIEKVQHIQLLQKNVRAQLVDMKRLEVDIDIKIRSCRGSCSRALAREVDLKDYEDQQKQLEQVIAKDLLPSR
T1 sequence (looked up) 2: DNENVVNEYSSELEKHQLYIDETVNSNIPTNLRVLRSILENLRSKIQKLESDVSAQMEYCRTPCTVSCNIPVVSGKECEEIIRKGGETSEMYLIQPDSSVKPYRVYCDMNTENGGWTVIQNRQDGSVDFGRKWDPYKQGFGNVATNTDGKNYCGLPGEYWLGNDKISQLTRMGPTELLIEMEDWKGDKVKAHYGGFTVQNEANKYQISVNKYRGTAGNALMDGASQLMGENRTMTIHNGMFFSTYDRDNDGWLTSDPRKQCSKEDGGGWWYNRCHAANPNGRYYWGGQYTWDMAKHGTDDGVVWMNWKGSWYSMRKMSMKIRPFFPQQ
T1 sequence (looked up) 3: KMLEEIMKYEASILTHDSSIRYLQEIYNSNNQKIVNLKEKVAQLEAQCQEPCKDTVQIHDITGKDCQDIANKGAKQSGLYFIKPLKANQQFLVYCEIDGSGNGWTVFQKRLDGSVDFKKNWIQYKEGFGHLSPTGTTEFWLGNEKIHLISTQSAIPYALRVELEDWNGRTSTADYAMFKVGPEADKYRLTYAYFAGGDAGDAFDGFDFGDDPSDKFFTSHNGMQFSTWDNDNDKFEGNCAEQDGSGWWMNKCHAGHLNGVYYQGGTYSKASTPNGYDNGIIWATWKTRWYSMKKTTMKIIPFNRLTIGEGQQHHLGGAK
Description: SPR maximal binding response against peptide concentration, fibrinogen fragment D immobilised. As to the method:
Upon stabilization of the baseline signal, kinetic binding experiments were run in duplicate with the peptide variants as the flow analytes. Five varying concentrations for each peptide (0.94 μM to 150 μM) were flowed at 25 μL/min for 4 min immediately followed by a 10 min dissociation phase. Between each run, the surface was regenerated with 1M sodium bromide and 50 mM sodium acetate (pH 6.0). SPR experiments were performed three times with varying peptide injection order to rule out binding trends associated with injection sequence. Peptide solutions were incubated with tris(2-carboxyethyl)phosphine (TCEP) immobilized on agarose beads (Thermo Fisher Scientific, Inc; Rockland, Ill.) to ensure reduction of any disulfide bonds between C-terminal cysteines.
Prior to analysis, all sensorgrams were inspected for abnormalities (i.e. baseline drift, air spikes, or irregular deviations) and excluded. Reference cell responses were subtracted from corresponding active response curves. […] The resulting curves were then analyzed and fitted to the kinetic models. Kinetic modeling and simulations were performed with ClampXP software using the Langmuir 1:1 model or the heterogeneous ligand model; globally fitted parameters were determined for each kinetic data set per peptide. Equilibrium binding constants were calculated from fitted kinetic constants.

Test [2] concerns the target T1, Fibrinogen fragment D. Description: SPR competition with GPRP-FnIII9-10 on immobilised fragment D.
In test [3] the target is T1, Fibrinogen fragment D. Kind of test: affinity purification from plasmin-digested fibrinogen, elution with 1 M sodium bromide. As to the method: Human fibrinogen (# FIB3, Enzyme Research Laboratories, South Bend, Ind.) at 2 mg/mL was digested with 0.1 U/mL human plasmin (Enzyme Research Laboratories) in HEPES+Ca buffer (150 mM NaCl, 5 mM CaCl₂, 25 mM HEPES, pH 7.4) overnight at room temperature. Fragment D (or D-domain) was isolated as previously described, with slight modifications, using a polymeric resin with covalently linked GPRPAA (SEQ ID NO:10) peptide (Kostelansky M S, et al. Biochemistry 2002, 41(40):12124-12132). Briefly, the plasmin-digested fibrinogen and GPRPAA-beads were incubated for 30 min, with occasional agitation. The unbound protein fragments were removed with exhaustive washing with HEPES+Ca buffer. Fragment D was eluted using 1 M sodium bromide, 50 mM sodium acetate, pH 5.3 and exchanged back into HEPES+Ca buffer using a centrifugal filter with MWCO 10,000.

Where no end group is shown, it is not given here.

B1: GPSPAAC (peptide)
peptide: GPSPAAC
notes: Synthetic (GenScript); negative control; also called negative control peptide
On to B1, for which, in the test with Fibrinogen fragment D [1], the binding result is “no binding (tested: just below 10^-4 M (last point))”.

B2: GPRP tetrapeptide (peptide)
peptide: GPRP
notes: Synthetic (Genscript); also called A-knob tetrapeptide mimetic; soluble GPRP peptide
On to B2, for which the binding result in the test with Fibrinogen fragment D [2] is on record as “binds”.

B3: GPRPAA peptide covalently linked to a polymeric resin (peptide)
peptide: GPRPAA
modifications: not fully specified
notes: also called GPRPAA-beads
On to B3, for which the binding result in the test with Fibrinogen fragment D [3] is reported as “binds”.
